We go through two molecules from patent publication US20260231954A1, “PESTICIDAL ENZYMES FOR USE ON NEMATODES, INSECTS, AND MOLLUSKS” (priority 2023, published 2026).

One test concerns Steinernema feltiae. Kind of test: In-vitro plate assay of Steinernema feltiae juvenile death after direct treatment. The test is classed as in vivo. Conditions: Table 23, 40 μL per well (ILEVO 20 μL), water control 3%. Here is the method:
To determine the effects of enzymes on an additional soil-dwelling nematode species (Steinernema feltiae), a NemAttack™ package containing approximately 5 million S. feltiae juveniles was purchased from ARBICO Organics. The nematodes arrived already hatched and dispersed within a powder. To prepare the nematodes for use, an aliquot of the dry nematode mixture was rehydrated in water. The liquid nematode mixture was adjusted to a concentration of 20-30 nematode juveniles per 10 μL. The free enzymes Esterase B (SEQ ID NO: 89) and Chitinase 19F (SEQ ID NO: 182) were produced as described in Example 2.
Potato dextrose agar media containing chloramphenicol and chlortetracycline was prepared and added to sterile twenty-four-well cell culture plates (1 mL per well). The plates were divided according to the pre-determined N-value for each treatment (N=12-24). […]
To quantify the treatments' effects on nematode viability, the nematodes were examined under a dissecting microscope at 20× magnification. Initial (T0) values for the number of live juveniles, number of dead juveniles and total number of juveniles were recorded immediately after preparation of each well. […] Approximately 20-22 hours post addition of juveniles, the plates were evaluated, and the number of live juveniles, dead juveniles and total number of juveniles were recorded. […]

Test [1] relates to Diamondback moth (Plutella xylostella). Kind of test: Diet-surface overlay (DSO) bioassay on Diamondback moth. The test is classed as in vivo. Here is the method: (§1) Diet-surface overlay bioassays are conducted with artificial diet mixes without antibiotics in 1.5 cm^2 cell bioassay trays(s). Artificial diets are commercially available from Southland Products Inc. Diets were prepared by dispersing 0.5 mL of molten diet to each 1.5 cm^2 cell. After solidification, 0.1 mL enzyme treatments were dispersed on top of diet in each cell and the tray was gently rocked in an orbital shaker to spread the liquid uniformly over the diet surface. Trays were placed under clean airflow until the surface of each cell was uniformly dried. One or two 16-cell sections were used per treatment (the number in larvae treated was 16 or 32).
(§2) One healthy first instar larva was placed into each treatment cell, each 16-cell section was covered with a re-sealable lid and incubated at 27° C. and light-dark period of 16:8 hrs. After 7 days, and according to the species, the number of individuals in the following developmental categories was recorded.
(§3) Diamondback moth (Plutella xylostella): Dead Larva (lack of movement), Larva Stage I (≤50% relative size), Larva Stage II (100% relative size, full size), Early Pupa (light green color), Late Pupa (light-dark brown color), and Adult.
(§4) Negative/untreated controls were treated with filtered water and positive controls were treated with lethal doses of Bacillus thuringiensis subsp. Kurstaki (Btk) spores at 1000 ppm.

The next test concerns SCN nematodes. Put plainly: Nematode death after foliar spray application on strawberry leaf segments. The test is classed as in vivo, Heterodera glycines. The settings on record: 0.6% solution of fermentation broth sprayed on strawberry leaf segments; 20 wells; water only 5%. Here is the method:
To determine whether a nematicidal enzyme can cause nematode death when sprayed as a foliar treatment, a trial was performed using chitinase 19F (SEQ ID NO: 182). The free enzyme was produced as described in Example 2. A SCN hatchery was set up as described in Example 2, except that no bleach sterilization step was performed. Six days later, the concentration of hatched nematodes was determined. Leaves from Quinault strawberry plants (Fragaria x ananassa) were cut into square sections and placed in the wells of a 24-well plate with the abaxial side up. […] Spray solutions were created with water alone and water plus fermentation broth with chitinase 19F (SEQ ID NO: 182). For the base strain control and chitinase solutions, 0.094 mL of fermentation broth was added to 15 mL of water (0.6% solution) to model a field spray application of 8 fl oz. per acre. Treatments were added to a small spray bottle and each leaf segment was sprayed approximately 3 times. After the leaves had dried, approximately 100 nematodes were added to each leaf segment. To assess the number of nematodes that were alive at the start of the experiment hours, 500 μL of sterile water was added to 4 wells of each treatment, and the leaf segment was washed and removed. The number of alive and dead nematodes were counted for each well, and the average percentage of dead nematodes were calculated for each treatment. […]

Test [2] has as its system Btk resistant Diamondback moth. Kind of test: Diet-surface overlay (DSO) bioassay on Btk resistant Diamondback moth. The test is classed as in vivo, Plutella xylostella. Conditions: number of individuals, n = 32, 7 days. The method, then:
as §1, §2, §3, §4
However, both neutral proteases reduced the number of individuals reaching adult stage.
The effect of lipase (10× enzyme rate) and free lipases were tested on a Diamondback Moth Btk resistant strain. Free Lipases from Burkholderia cepacia (Bc) and Pseudomonas fluorescens (Pf) were tested along with Lipase (SEQ ID NO: 76) and the results are shown below in Table 45.

Setting [3] is: Table 49, esterases, Diamondback moth, number of individuals of n = 32.

B1: Esterase B (SEQ ID NO: 89): Bacillus subtilis Esterase (EstB without signal sequence) (protein, listed as Bacillus subtilis)
chain: ESVHNPVVLVHGISGASYNFFAIKNYLISQGWQSNKLYAIDFYDKTGNNLNNGPQLASYVDRVLKETGAKKVDIVAHSMGGANTLYYIKYLGGGNKIQNVVTLGGANGLVSSTALPGTDPNQKILYTSIYSLNDQIVINSLSRLQGARNIQLYGIGHIGLLSNSQVNGYIKEGLNGGGLNTN
modifications: Esterase (EstB H191 without signal sequence)
As for B1, the “Difference in Percent Death of Nematodes for 0 to 20 Hours” value with Steinernema feltiae is reported as “significantly increased the difference in percentage of S. feltiae juveniles that died”. For the same molecule, the “Difference in Percent Death of Nematodes for 0 to 20 Hours” value in the test with Steinernema feltiae (listed as Esterase B(SEQ ID NO: 89)) came out at 33%. In addition, in test [1] (setting [3]), the Adult turned out to be 0, the “Early Pupa” value was 4, the “Larva Stage I” value is 3 and the “Larva Stage II” value was 8. Moreover, the “Late Pupa” value in test [1] (setting [3]) was determined as 17. In addition, the “Dead Larva” value in test [1] (Table 49, esterases, Diamondback moth, number of individuals of n = 32, DSO bioassay, dose per treatment in U/mL Diet) is 0. Besides, the “individuals with delayed larva-pupa development” value in test [1] (text to Table 49, esterases, n = 32) is listed as 47%. In addition, the “individuals at larva stage” value in test [1] (text to Table 49: 34% of which were at larva stage) turned out to be 34%.

B2: Chitinase 19F (SEQ ID NO: 182): Streptomyces coelicolor Chitinase F (Chi19F) (protein)
chain: ASCSSYHAWSADANYNTGDIVRYTDGKAYIAEHANPGYDPLISTWYWDPYACDGGSQTPVGNFVVSEAQFNQMFPGRNSFYTYSGLTAALSAYPGFANTGSDTTKKQEAAAFLANVSHETGGLVYIVEQNTANYPHYCDWNQPYGCPAGQAAYYGRGPIQLSWNFNYKAAGDALGIDLLGNPWLVQNDAAVAWKTGLWYWNTQSGPGTMTPHNAMVNGAGFGQTIRSINGSLECDGKNPAQVQSRVTKYQQFAQILGVSPGGNLYC
modifications: Chitinase F (Chi19F); Streptomyces coelicolor
For the molecule B2, the “Average percentage of dead nematodes at 24 hours” value in the test with SCN nematodes was “increased significantly above the control treatments”. For the same molecule, the “Dead Larva” value in test [2] (Table 47, chitinases, rate in mU/mL diet column) was 2. For the same molecule, in test [2] (Table 47), the Adult worked out at 1, the “Early Pupa” value is given as 4, the “Larva Stage I” value came to 2 and the “Larva Stage II” value was 1. Further, the “Late Pupa” value in test [2] (Table 47) was determined as 22.
